From the supplement of paper PMC7877785
± gives the uncertainty stated by the source.

Experiment: self-splicing fitness, log relative to wild type (ln ratio); higher = more splicing; Tetrahymena group I intron in knt gene, E. coli kanamycin selection, DiMSum; sequences stand for … in CUCUCU…GGAGGGAAAAGUUAUCAGGCAUGCACCUGGUAGCUAGUCUUUAAACCAAUAGAUUGCAUCGGUUUAAAAGGCAAGACCGUCAAAUUGCGGGAAAGGGGUCAACAGCCGUUCAGUACCAAGUCUCAGGGGAAACUUUGAGAUGGCCUUGCAAAGGGUAUGGUAAUAAGCUGACGGACAUGGUCCUAACCACGCAGCCAAGUCCUAAGUCAACAGAUCUUCUGUUGAUAUGGAUGCAGUUCACAGACUAAAUGUCGGUCGGGGAAGAUGUAUUCUUCUCAUAAGAUAUAGUCGGACCUCUCCUUAAUGGGAGCUAGCGGAUGAAGUGAUGCAACACUGGAGCCGCUGGGAACUAAUUUGUAUGCGAAAGUAUAUUGAUUAGUUUUGGAGUACUCGUGGUCG
Outline: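 Pooled colonies went to amplicon sequencing on an Illumina HiSeq 2500 after six replicate transformations. The plates were LB agar with 100 μg/mL carbenicillin, 50 μM IPTG and 0.2% rhamnose, with or without 25 μg/mL kanamycin, incubated overnight at 37°C or 30°C. The E. coli BL21(DE3) library had all eight P1ex-region intron nucleotides randomised, the intron placed in the knt kanamycin-resistance gene on pET-22b(+). DiMSum fitness is the error-weighted combination of replicate fold changes, kanamycin against none, normalised to wild type.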

Row | Sequence | self-splicing fitness (ln) (30 °C) | self-splicing fitness (ln) (37 °C)
1 | GACUAGCAAUAUUACGUGCC | -1.75 ± 0.12 | -1.58 ± 0.18
2 | ACCGAGCAAUAUUACGCACA | -2.47 ± 0.11 | -1.67 ± 0.11
3 | UUUUAGCAAUAUUACGAACG | -0.665 ± 0.11 | 0.449 ± 0.18
4 | GCCGAGCAAUAUUACGGAGA | -1.55 ± 0.093 | -1.15 ± 0.13
5 | UCAAAGCAAUAUUACGGUGU | -2.8 ± 0.11 | -1.31 ± 0.099
6 | ACUGAGCAAUAUUACGACUU | -1.4 ± 0.11 | -0.511 ± 0.14
7 | CGUCAGCAAUAUUACGGGUA | -1.81 ± 0.14 | -1.06 ± 0.1
8 | AUGCAGCAAUAUUACGCCAU | -1.53 ± 0.18 | -2.28 ± 0.35
9 | CUACAGCAAUAUUACGUUGC | -3.67 ± 0.23 | -2.82 ± 0.21
10 | ACAAAGCAAUAUUACGCCAG | -1.94 ± 0.13 | -1.11 ± 0.16
11 | UGCCAGCAAUAUUACGUAUG | -1.2 ± 0.069 | -0.775 ± 0.095
12 | AGCUAGCAAUAUUACGGAGC | -2.44 ± 0.17 | -1.46 ± 0.23
13 | AUCGAGCAAUAUUACGUGCU | -2.72 ± 0.2 | -2 ± 0.27
14 | GUUAAGCAAUAUUACGUGCU | -1.6 ± 0.087 | -0.714 ± 0.11
15 | AAAAAGCAAUAUUACGAGAG | -2.88 ± 0.11 | -1.95 ± 0.1
16 | GAAGAGCAAUAUUACGCCUC | -3.27 ± 0.32 | -2.96 ± 0.32
17 | ACGCAGCAAUAUUACGGGGC | -3.8 ± 0.24 | -3.15 ± 0.28
18 | GAACAGCAAUAUUACGCGAA | -0.881 ± 0.086 | -0.124 ± 0.12
19 | AGGUAGCAAUAUUACGUGUA | -2.265 ± 0.017 | -1.31 ± 0.033

Row | Sequence | self-splicing fitness (ln) (30 °C) | self-splicing fitness (ln) (37 °C)
20 | GACCAGCAAUAUUACGUUCG | -2.05 ± 0.073 | -0.063 ± 0.074
21 | CUCGAGCAAUAUUACGGGGC | -3.41 ± 0.18 | -1.51 ± 0.16
22 | CUUGAGCAAUAUUACGCGUA | -3.18 ± 0.35 | -2.31 ± 0.27
23 | ACAUAGCAAUAUUACGACCA | -0.589 ± 0.12 | 0.121 ± 0.14
24 | AUUUAGCAAUAUUACGGAGG | -2.53 ± 0.19 | -2.06 ± 0.27
25 | CGGGAGCAAUAUUACGUAUA | -3.33 ± 0.33 | -2.4 ± 0.25
26 | UGGCAGCAAUAUUACGGUUC | -2.14 ± 0.2 | -0.624 ± 0.19
27 | AUUCAGCAAUAUUACGAUCG | -1.87 ± 0.1 | -1.5 ± 0.12
28 | GAACAGCAAUAUUACGUACC | -0.94 ± 0.27 | 0.0452 ± 0.3
29 | CAGCAGCAAUAUUACGAAUA | -2.35 ± 0.13 | -1.9 ± 0.12
30 | GGGGAGCAAUAUUACGCCCA | -1.14 ± 0.19 | -0.0692 ± 0.27
31 | AUUCAGCAAUAUUACGGAUU | -4.2 ± 0.22 | -2.21 ± 0.2
32 | UCAAAGCAAUAUUACGCAGG | -4.07 ± 0.2 | -2.2 ± 0.14
33 | CAGCAGCAAUAUUACGAGAA | – | -3.16 ± 0.37
34 | UCAAAGCAAUAUUACGAACA | -1.41 ± 0.18 | -0.524 ± 0.15
35 | AUGUAGCAAUAUUACGAGAC | -3.13 ± 0.31 | -2.09 ± 0.2
36 | AUAGAGCAAUAUUACGCAUU | -1.19 ± 0.096 | -0.296 ± 0.1
37 | UACUAGCAAUAUUACGACGU | -2.22 ± 0.1 | -1.29 ± 0.12
38 | AGGUAGCAAUAUUACGCGAC | -2.971 ± 0.029 | -1.8 ± 0.04
